The target in experiment [1] is T1, RICK (UniProt O43353 1-540, limits assumed, 35S label in the in vitro assay).
T1 construct: also called 35S-labeled RICK; RIP2
The experiment can be described thus: restated from Example 3; construct not named.

The target in experiment [2] is T2, pro-caspase-2 (UniProt P42575 1-452, limits assumed).
T2 sequence (looked up): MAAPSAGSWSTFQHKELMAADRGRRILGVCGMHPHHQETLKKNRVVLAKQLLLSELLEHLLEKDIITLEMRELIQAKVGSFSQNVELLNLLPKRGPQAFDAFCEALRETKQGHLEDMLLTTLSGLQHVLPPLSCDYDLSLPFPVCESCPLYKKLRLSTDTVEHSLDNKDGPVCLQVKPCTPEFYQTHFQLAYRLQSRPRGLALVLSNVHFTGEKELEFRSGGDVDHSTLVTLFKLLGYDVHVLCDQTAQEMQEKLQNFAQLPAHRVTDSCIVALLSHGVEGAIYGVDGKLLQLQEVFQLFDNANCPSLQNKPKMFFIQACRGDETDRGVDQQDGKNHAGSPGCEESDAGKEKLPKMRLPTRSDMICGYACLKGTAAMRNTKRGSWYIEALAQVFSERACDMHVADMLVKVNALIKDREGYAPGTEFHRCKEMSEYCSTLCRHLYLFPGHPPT
The experiment in a line: GST pull-down in vitro or co-immunoprecipitation from 293 T cells (data not shown). The method, then: (§1) Cells were then centrifuged at 10000 g for 15 min and supernatants were incubated for 2 h at 4° C. with gluthatione Sepharose 4B resin (Amersham Pharmacia Biotech). The protein-bound resin (30 μl) was washed with GST buffer and incubated overnight at 4° C. in the presence of 5 μl of ³⁵S-labeled in vitro-translated products. Labeled proteins were prepared from pcDNA3 constructs by in vitro transcription and translation in the presence of ³⁵S-methionine using T7-coupled transcription/translation TNT kit according to the manufacturer's instructions (Promega, Madison, Wis.). Samples of the protein-bound resins were washed three times in GST buffer, boiled in sodium dodecyl sulfate (SDS) Laemmli sample buffer and fractionated by electrophoresis on an SDS-polyacrylamide gel. Proteins were then visualized by autoradiography.
(§2) Human embryonic kidney 293 T cells, were cultured in […] dishes in Dulbecco modified essential medium (DMEM) supplemented with 10% fetal bovine serum (FBS) and antibiotics (Life Technologies). Cells at 50% confluency, were transiently co-transfected with equal amounts of T7-pcDNA3 and Flag-pCMV2 constructs (total DNA of 10 μg/dish) in OptiMEM using the lipofectamine method according to the manufacturer's recommendations (Life Technologies). Twelve hours after transfection, OptiMEM was replaced with DMEM/10% FBS. Twenty four hours later, cells were lysed in 300 μl of a buffer containing 25 mM tris(hydroxymethylaminomethane), pH 7.6, 150 mM NaCl, 1% nonidet-P40, and PMSF. Samples were centrifuged. One third of the supernatant was put aside to verify by Western blot the expression of the proteins. The remaining 200 μl of supernatant were incubated for 2 h at 4° C. with anti-Flag M5 plus M2 monoclonal antibodies (Ab; Sigma). The immune complexes were precipitated overnight at 4° C. with protein-G Sepharose (Amersham-Pharmacia Biotech), washed extensively and then eluted by boiling in SDS-sample buffer. The eluted proteins were resolved by SDS-PAGE and detected by Western blot analysis with horseradish peroxidase (HRP)-conjugated anti-T7 Ab (Novagen, Madison, Wis.). Bands were then detected using enhanced chemoluminescence kit (Amersham Pharmacia Biotech).

Experiment [3] deals with T3, pro-caspase-4 (UniProt P49662 1-377, limits assumed).
T3 sequence (looked up): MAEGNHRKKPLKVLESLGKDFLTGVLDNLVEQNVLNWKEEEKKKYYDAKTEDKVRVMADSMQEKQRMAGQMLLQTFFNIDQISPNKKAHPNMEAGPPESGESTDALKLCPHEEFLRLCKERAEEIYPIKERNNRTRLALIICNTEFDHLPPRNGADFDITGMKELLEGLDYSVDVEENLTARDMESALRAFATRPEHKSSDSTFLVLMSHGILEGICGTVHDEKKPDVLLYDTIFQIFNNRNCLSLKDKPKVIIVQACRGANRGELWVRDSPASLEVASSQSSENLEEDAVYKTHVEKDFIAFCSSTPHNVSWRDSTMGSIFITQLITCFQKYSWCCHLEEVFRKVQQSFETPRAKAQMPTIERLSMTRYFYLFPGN
The experiment is described as above. The method, then: as §1, §2

Experiment [4] concerns the target T4, Apaf-1 (human, UniProt O14727 1-1248, limits assumed).
T4 sequence (looked up): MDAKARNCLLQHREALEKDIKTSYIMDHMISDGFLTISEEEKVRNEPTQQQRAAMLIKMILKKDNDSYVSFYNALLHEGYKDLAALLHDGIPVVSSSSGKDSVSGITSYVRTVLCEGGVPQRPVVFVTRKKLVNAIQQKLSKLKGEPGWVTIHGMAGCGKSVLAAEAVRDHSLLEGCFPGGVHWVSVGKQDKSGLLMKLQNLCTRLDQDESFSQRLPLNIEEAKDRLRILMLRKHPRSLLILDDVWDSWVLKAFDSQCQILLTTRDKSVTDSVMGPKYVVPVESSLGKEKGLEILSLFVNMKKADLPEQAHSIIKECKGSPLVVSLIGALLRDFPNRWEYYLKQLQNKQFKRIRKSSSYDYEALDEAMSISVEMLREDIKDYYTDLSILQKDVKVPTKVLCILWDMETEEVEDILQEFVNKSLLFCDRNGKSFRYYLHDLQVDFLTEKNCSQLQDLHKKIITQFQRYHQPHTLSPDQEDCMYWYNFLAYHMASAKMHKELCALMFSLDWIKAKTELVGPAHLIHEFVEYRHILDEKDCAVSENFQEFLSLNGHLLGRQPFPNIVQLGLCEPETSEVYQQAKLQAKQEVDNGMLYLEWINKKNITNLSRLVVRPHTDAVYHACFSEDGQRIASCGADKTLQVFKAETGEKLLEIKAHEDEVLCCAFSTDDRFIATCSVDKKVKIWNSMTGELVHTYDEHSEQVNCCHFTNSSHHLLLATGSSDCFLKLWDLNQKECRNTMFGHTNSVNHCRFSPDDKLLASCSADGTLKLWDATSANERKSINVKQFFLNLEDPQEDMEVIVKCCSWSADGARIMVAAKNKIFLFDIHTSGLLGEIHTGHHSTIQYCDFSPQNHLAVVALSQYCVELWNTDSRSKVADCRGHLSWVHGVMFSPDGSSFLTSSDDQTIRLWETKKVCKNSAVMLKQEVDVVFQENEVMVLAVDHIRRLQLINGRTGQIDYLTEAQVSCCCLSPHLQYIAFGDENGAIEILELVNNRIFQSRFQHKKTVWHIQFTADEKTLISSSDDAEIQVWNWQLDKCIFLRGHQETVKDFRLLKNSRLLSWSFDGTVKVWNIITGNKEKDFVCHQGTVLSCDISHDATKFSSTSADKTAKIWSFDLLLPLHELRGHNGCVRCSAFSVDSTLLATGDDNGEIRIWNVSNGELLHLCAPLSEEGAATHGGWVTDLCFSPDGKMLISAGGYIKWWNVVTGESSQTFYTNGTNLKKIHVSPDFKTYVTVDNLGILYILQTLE
The description is as above. The method, then: as §1, §2

In experiment [5] the target is T5, c-CLAP (human, UniProt O95999 1-233, limits assumed).
T5 sequence (looked up): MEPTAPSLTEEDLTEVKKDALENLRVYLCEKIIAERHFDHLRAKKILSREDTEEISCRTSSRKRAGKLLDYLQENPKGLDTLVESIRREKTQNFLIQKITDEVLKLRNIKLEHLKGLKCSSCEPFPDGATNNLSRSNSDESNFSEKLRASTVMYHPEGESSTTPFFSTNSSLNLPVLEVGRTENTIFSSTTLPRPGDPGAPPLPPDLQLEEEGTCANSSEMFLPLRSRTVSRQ
Described as above. The method, then:
as §1, §2

Experiment [6] concerns the target c-IAP2 (UniProt Q13489 1-604, limits assumed). The experiment is described as above. The method, then: as §1, §2
The target in experiment [7] is T6, CRADD (human, UniProt P78560 1-199, limits assumed).
T6 construct: also called T7-tagged CRADD
T6 sequence (P78560 whole entry): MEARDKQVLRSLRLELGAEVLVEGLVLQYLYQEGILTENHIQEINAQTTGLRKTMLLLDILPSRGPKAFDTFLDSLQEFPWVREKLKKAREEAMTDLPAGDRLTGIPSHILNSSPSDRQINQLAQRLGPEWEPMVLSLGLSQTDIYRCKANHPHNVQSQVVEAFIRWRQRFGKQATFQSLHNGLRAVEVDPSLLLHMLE
The experiment in a line: GST pull-down in vitro or co-immunoprecipitation from 293 T cells (T7-CRADD with Flag-Pseudo-ICE, Panel C of FIG. 2). The method, then:
as §2, with “buffer.” for “buffer. The eluted proteins were resolved by SDS-PAGE and detected by Western blot analysis with horseradish peroxidase (HRP)-conjugated anti-T7 Ab (Novagen, Madison, Wis.). Bands were then detected using enhanced chemoluminescence kit (Amersham Pharmacia Biotech).”

Experiment [8] has as its target T7, GST (UniProt P08515 1-218 = GST).
T7 construct: also called gluthatione-S-transferase; GST alone
The experiment in a line: GST pull-down on glutathione resin of in vitro translated 35S-labeled protein, autoradiography [panel B]. The method, then: as §1

The target in experiment [9] is T6, CRADD. The experiment in a line: GST pull-down in vitro or co-immunoprecipitation from 293 T cells (T7-CRADD with Flag-ICE-Like, Panel C of FIG. 2). The method, then: as §2, with “buffer.” for “buffer. The eluted proteins were resolved by SDS-PAGE and detected by Western blot analysis with horseradish peroxidase (HRP)-conjugated anti-T7 Ab (Novagen, Madison, Wis.). Bands were then detected using enhanced chemoluminescence kit (Amersham Pharmacia Biotech).”

Experiment [10] addresses T8, Flag-tagged RICK (UniProt O43353 1-540).
T8 construct: Expressed in 293 T cells, precipitated with anti-Flag antibodies; also called Flag-RICK; RIP2; not shown: Flag tag
The experiment can be described thus: co-immunoprecipitation from 293 T cells cotransfected with Flag-RICK, T7-Casp1C/A and rising amounts of T7-ICE-Like: IP anti-Flag, western blot anti-T7 [panel B]. The method, then:
as §2

For experiment [11], the target named is T1, RICK. The experiment in a line: GST pull-down of 35S-labelled RICK (data not shown). The method, then: as §1

T1 sequence (O43353 whole entry): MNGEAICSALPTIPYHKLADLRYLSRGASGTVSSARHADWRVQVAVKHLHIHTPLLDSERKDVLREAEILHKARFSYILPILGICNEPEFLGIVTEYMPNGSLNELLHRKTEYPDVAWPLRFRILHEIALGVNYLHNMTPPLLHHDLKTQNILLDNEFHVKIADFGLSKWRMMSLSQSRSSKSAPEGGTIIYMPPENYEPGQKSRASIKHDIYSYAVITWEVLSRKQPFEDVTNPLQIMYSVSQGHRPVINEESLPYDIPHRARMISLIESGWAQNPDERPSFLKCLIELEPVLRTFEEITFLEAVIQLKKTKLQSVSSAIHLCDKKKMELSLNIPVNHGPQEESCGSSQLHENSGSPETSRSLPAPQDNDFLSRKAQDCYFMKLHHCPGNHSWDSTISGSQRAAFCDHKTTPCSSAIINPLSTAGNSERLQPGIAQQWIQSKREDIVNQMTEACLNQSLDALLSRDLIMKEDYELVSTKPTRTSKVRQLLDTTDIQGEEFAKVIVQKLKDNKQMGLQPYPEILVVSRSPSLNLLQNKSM
T7 sequence (P08515 whole entry): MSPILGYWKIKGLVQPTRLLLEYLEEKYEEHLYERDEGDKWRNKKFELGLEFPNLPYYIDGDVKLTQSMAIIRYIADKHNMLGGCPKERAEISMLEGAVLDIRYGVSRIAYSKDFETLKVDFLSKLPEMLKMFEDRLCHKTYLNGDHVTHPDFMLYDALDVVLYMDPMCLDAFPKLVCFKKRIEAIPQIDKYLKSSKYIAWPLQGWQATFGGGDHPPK
c-IAP2, sequence (Q13489 whole entry): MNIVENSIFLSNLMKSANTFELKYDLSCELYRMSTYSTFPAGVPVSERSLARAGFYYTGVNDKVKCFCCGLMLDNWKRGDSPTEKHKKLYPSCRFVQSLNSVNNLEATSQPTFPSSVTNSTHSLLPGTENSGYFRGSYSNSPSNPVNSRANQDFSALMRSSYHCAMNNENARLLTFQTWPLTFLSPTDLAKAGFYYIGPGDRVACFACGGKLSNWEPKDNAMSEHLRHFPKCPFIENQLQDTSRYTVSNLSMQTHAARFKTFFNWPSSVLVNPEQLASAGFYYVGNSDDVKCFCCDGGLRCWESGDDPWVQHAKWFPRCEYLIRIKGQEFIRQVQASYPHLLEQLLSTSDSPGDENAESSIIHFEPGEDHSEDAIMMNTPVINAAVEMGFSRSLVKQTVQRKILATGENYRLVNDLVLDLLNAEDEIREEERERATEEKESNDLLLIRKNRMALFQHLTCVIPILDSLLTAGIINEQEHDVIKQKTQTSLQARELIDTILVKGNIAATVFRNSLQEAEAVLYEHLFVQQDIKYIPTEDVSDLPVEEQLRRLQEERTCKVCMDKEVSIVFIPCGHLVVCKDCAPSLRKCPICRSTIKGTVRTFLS
T8 sequence (O43353 whole entry): as the sequence (O43353 whole entry) above

B1: Pseudo-ICE (other)
chain: MADKVLKEKRKLFIHSMGEGTINGLLDELLQTRVLNQEEMEKVKRENATVMDKTRALIDSVIPKGAQACQICITYICEEDSYLAETLGLSAGPIPGN
modifications: 35S-methionine label in the in vitro assay
notes: Used for the 35S-labelled in vitro translated product (made from a pcDNA3 construct); also called 35S-labeled Pseudo-ICE; in vitro translated Pseudo-ICE
B1: the binding result in experiment [1] is “binds”; in experiment [2], “no binding”; in [3], “no binding”; in [4], “no binding”; in [5], “no binding”; in [6], “no binding”. For the same molecule, the binding result in experiment [7] and in experiment [8] was “no binding” throughout.

B2: ICE-Like (other)
chain: MADQLLRKKRRIFIHSVGAGTINALLDCLLEDEVISQEDMNKVRDENDTVMDKARVLIDLVTGKGPKSCCKFIKHLCEEDPQLASKMGLH
modifications: 35S-methionine label in the in vitro assay
notes: Used for the 35S-labelled in vitro translated product (made from a pcDNA3 construct); also called 35S-labeled ICE-Like; in vitro translated ICE-Like
For B2, the binding result in experiment [1], in experiment [2], in experiment [3], in [4], in experiment [5] and in [6] was “no binding” each time. Further, the binding result in experiment [9] and in experiment [8] was “no binding” throughout.

B3: T7-tagged ICE-Like (other, not shown: small tags and cut ends)
chain: B2 chain
notes: Expressed from pcDNA3 in 293 T cells, or from pMSCVneo retroviral vector in THP-1 cells; also called T7-ICE-Like
As for B3, in experiment [10], the binding result is “no binding”.

B4: GST-conjugated ICE-Like (other)
chain: B2 chain
notes: GST is put first by the usual make of pGEX vectors; also called ICE-Like-GST; GST-ICE-Like; not shown: glutathione-S-transferase (GST) from vector pGEX-5X 3
For B4, in experiment [11], the binding result was “no binding”.

For the origin of these results see patent publication US20030166192A1 (published 2003).
